This is an account of results in patent US20190127447A1 (Ablynx, published 2019).

For this experiment, the target named is RSV F protein of the hRSV Memphis 37 strain (human respiratory syncytial virus …). Put plainly: cell-based or functional assay.

B1: SEQ ID NO: 71 (VHH)
chain: DVQLVESGGGLVQAGGSLSISCAASGGSLSNYVLGWFRQAPGKEREFVAAINWRGDITIGPPNVEGRFTISRDNAKNTGYLQMNSLAPDDTAVYYCGAGTPLNPGAYIYDWSYDYWGRGTQVTVSSGGGGSGGGGSGGGGSEVQLVESGGGLVQAGGSLSISCAASGGSLSNYVLGWFRQAPGKEREFVAAINWRGDITIGPPNVEGRFTISRDNAKNTGYLQMNSLAPDDTAVYYCGAGTPLNPGAYIYDWSYDYWGRGTQVTVSSGGGGSGGGGSGGGGSEVQLVESGGGLVQAGGSLSISCAASGGSLSNYVLGWFRQAPGKEREFVAAINWRGDITIGPPNVEGRFTISRDNAKNTGYLQMNSLAPDDTAVYYCGAGTPLNPGAYIYDWSYDYWGRGTQVTVSS
Consider B1, for which the “sensitivity in in vitro neutralization assays relative to RSV-B 18537” value came to 6 fold.
